We go through two proteins from article PMC9649601, “The E262K mutation in Lamin A links nuclear proteostasis imbalance to laminopathy‐associated premature aging” (Aging Cell, 2022).

Residue numbers refer to the chain shown, from its start. Numbers in names are those of the source.

This series deals with the molecule itself. The series is described as follows: dynamic light scattering + other: atomic force microscopy; purified proteins at 0.1 and 10 uM in aqueous environment; ex situ AFM at 10 uM; self-association (oligomers or aggregates).

B1: second rod domain of lamin A E262K (LMNA^E262K-rod2, residues 226-387) (domain or fragment, human, UniProt P02545 226-387, looked up)
chain: LVEIDNGKQREFESRLADALQELRAQHEDQVEQYKKKLEKTYSAKLDNARQSAERNSNLVGAAHEELQQSRIRIDSLSAQLSQLQKQLAAKEAKLRDLEDSLARERDTSRRLLAEKEREMAEMRARMQQQLDEYQELLDIKLALDMEIHAYRKLLEGEEERL
notes: lamin A (LMNA), human, second rod domain, residues 226-387, with the patient's variant p.Glu262Lys; source: bacterially expressed recombinant, purified
Regarding B1, the binding result was “binds”.

B2: second rod domain of lamin A (LMNA-rod2, residues 226-387) (domain or fragment, human, UniProt P02545 226-387, looked up)
chain: B1 chain with K37E
notes: lamin A (LMNA), human, second rod domain, residues 226-387; source: bacterially expressed recombinant, purified
For the protein B2, the binding result is listed as “binds”.
